# Measured values reported in the nanobody polyreactivity screen of Harvey et al. (2022).
# Test: yeast display, Sf9 membrane polyspecificity reagent, FACS + sequencing; frameworks hold sequencing errors
# Outline: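 Nanobodies came from a synthetic yeast display library in Saccharomyces cerevisiae BJ5465, induced with galactose for 36–48 hours and stained for 1 hour at 4 °C with 10% biotinylated, detergent-solubilized Sf9 membrane reagent. Cells were enriched on streptavidin microbeads and then FACS-sorted, with low and high (top ~1%) gates set on anti-HA fluorescence for expression and streptavidin fluorescence for reagent binding. Each polyreactivity label reflects the gate a clone came from. Genes were amplified by colony PCR, sequenced by MiSeq 2 × 250 and filtered by CDR length.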
row,Sequence,polyreactivity (PSR sort gate)
1,QVQLVESGGVLVQAGGSIRLSCAASGSTSYIYVMGWYRQAPGKERELVATISKNGGDTYADSVKGRFTISRDNAKNTVYLQMNSLKPEDTAVYYCNARAFRYNRRISSRYNYWGQGTQVTVSS,high polyreactivity
2,QVQLVESGGVLVQAGGSLRISCAASGNTFVHYAMGWYRQAPGKEREFVAAISSSGGSTYYADSVKGRFTISRDNAKNTVYLQMNSLKPEDTAVYYCAAGGWPYSGGWFFQPNYDYWGQGTQVTVSS,low polyreactivity
3,QVQLVESGGVLVQAGGSLRLSCAASARIFAYSVMGWYRQAPGKEREFVAAISWSGGRTYYAHSVKGRFTISRDNAKNTVYLQMNSLKPEDTAVYYCNAGRPLWLAYGMDYWGQGTQVTVSS,low polyreactivity
4,QVQLVESGGVLVQAGGSLRLSCAASGFTFAKNAMGWYRQAPGKERELVATISRSGGSTYYADSVKGRFTISRDKAKNTVYLQMNSLKPEDTAVYYCNKKYKYLYDYWGQGTQVTVSS,high polyreactivity
5,QVQLVESGGVLVQAGGSLRLSCAASGFTFVAYTMGWYRQAPGKDRELVASIPNVGSTNYADSVKGRFTISRDKAMNTVYLLMNSLKPEDTAVYYCAAEYLGWHYLYLPFRDYDSWGQGTQVTVSS,low polyreactivity
6,QVQLVESGGVLVQAGGSLRLSCAASGFTFWDYAMGWYRHAPGKERELVAAISDNDGSTDYADSVKGRFTISRDNAKNTVYLQMNSLKPEDTAVYYCNAEIELPSKEGDYWGQGTQVTVSS,low polyreactivity
7,QVQLVESGGVLVQAGGSLRLSCAASGGTFGVYTMGWYRQSPGKERDLVAAISWSGGSTYYADSVKGRFRISRDNAKNTVYLQINSLKPEDTAVYYCAARLKYGRIGVDHWGQGTQVTVSS,high polyreactivity
8,QVQLVESGGVLVQAGGSLRLSCAASGRIFDRNAMGWYRQAPGKERELVAAIDDSGGDTSYADSVKGRFTISRDNAKNTVYLQMNSLKPEDTAVYYCNAGYADFVTYPRYYYWGQGTQVTVSS,low polyreactivity
9,QVQLVESGGVLVQAGGSLRLSCAASGRIFYNYGMGWYIQAPGKERELVARITTGGRTNYADSVKGRFTISRDNAKNTVYLQMNSLKPEDTAVYYCNADGYHSRWYYYNYDYWGQGTQVTVSS,low polyreactivity
10,QVQLVESGGVLVQAGGSLRLSCAASGRTFDRYAMGWYRQAPGKERELVAAITWSGGRTYYADSVKGRFTISRDNAKNTVYLHMNSLKPEDTAVYYCAADNSYRGYHSPYDYWGQGTQVTVSS,low polyreactivity
11,QVQLVESGGVLVQAGGSLRLSCAASGRTFGWYAMGWYRQAPGKERELVAAITWRGGSTYYADSVKGRFTISRDNAKNTVYLQMNILKPEDTAVYYCAAAAEKRSYYWGQGTQVTVSS,high polyreactivity
12,QVQLVESGGVLVQAGGSLRLSCAASGSIFDWYVMGWYRQAPGKERELVAAITSTGSTYYADSVKGRFTISLDNAKNTVYLQMNSLKPEDTAVYYCATSFYVYPSYYIMDYWGQGTQVTVSS,low polyreactivity
13,QVQLVESGGVLVQAGGSLRLSCAASGSIFILYAMGWYRQAPGKEREFVAAITYRGGSTKYADSVKGRFTISRDNAKNNVYLQMNRLKPEDTAVYYCAAGGYWRSPWGSVSRYGYWGQGTQVTVSS,high polyreactivity
14,QVQLVESGGVLVQAGGSLRLSCAASGSIFILYAMGWYRQAPGKERELVAAISSTGTTYYADSVKGRFTISRDNAKNTVYLQMNSLKPEDTAVYYCATDEHSSGRTPYDYWGQGTQVTVSS,low polyreactivity
15,QVQLVESGGVLVQAGGSLRLSCAASGSIFWPNSMGWYRQAPGKERELVAGISYSGGRTYYADSVKGRFTISRDNAKNTVYLQMNSLKPEDTAVYYCAALSRRDYNYWGQGTQVTVSS,high polyreactivity
16,QVQLVESGGVLVQAGGSLRLSCAASGSIFYRYAMGWYRQAPGKERELVAANSSNGVSTYYADSVKGRFTISRDNAKNTVYLQMNSLKPEDTAVYYCARDVYASPRLYTSRYNYWGQGTQVTVSS,low polyreactivity
17,QVQLVESGGVLVQAGGSLRLSCAASGSTFFVYAMGWYRQAPGKERELVAAISSRGSTYYADSVKGRFTISRDNAKNTVYLQMNSLKPEDTAVYYCAAEYTVSYLRMDYWGQGTQVTVSS,low polyreactivity
18,QVQLVESGGVLVQAGGSLRLSCAASGSTFLLNTMGWYRQAPGKERELVATITSTDDTNYADSVKGRFTISRDNAKNTVYLHMNSLKPEDTAVYYCAKGYLNYGRDWDFDSWGQGTQVTVSS,low polyreactivity
19,QVQLVESGGVLVQAGGSLRLSCAASGSTFPRNAMGWYRQAPGKERELVAAISGRGVRTYYADSVKGRFTISRDNAKNTVYLQMNSLKPEDTAVYYCAAERQPYRTSSYNYWGQGTQVTVSS,high polyreactivity
20,QVQLVESGGVLVQAGGSLRLSCAASGSTFQKYTMGWYRQAPGKERELVAGISGGGSTYYADSVKGRFTISRDNAKNTVYLQMNSLKPEDTAVYSCAAETLYTGPPPRYDYWGQGTQVTVSS,low polyreactivity
21,QVQLVESGGVLVQAGGSLRLSCAASGSTFSYYAMGWYRQAPGKERELVAAIDSSGGRTYYADSVKGRFTISRDNAKNTVYLHMNSLKPEDTAVYYCAADASYTEGMDYWGQGTQVTVSS,high polyreactivity
22,QVQLVESGGVLVQAGGSLRLSCAASGSTFTTNAMGWYRQAPGKERELVARISRIGASTHYADSVKGRFTISRDNAKNTVYLQMNSLKPEDTAVYYCAKSKGTPGNFGYWGQGTQVTVSS,low polyreactivity

row,Sequence,polyreactivity (PSR sort gate)
1,QVQLVESGGVLVQAGGSLRLSCAASGYIFNKYVMGWYRPAPGKERELVAAISASGGSTYYADSVKGRFTLSRDNAKNTVYLQMNSLKPEDTAVYYCAATLYRRMDYWGQGTQVTVSS,high polyreactivity
2,QVQLVESGGVLVQAGGSLRLSCAATGSIFQYYAMGWSRQAPGKERELVATNRRSGGSTYYADSVKGRFTISRDTAKHTVFLQMNSLKPEDTAVYYCARRLYTWETGGWRYDSWGQGTQVTVSS,high polyreactivity
3,QVQLVESGGVLVQARGSLRLSCAASGRTFRYYAMGWYRQAPGQEREMVATISWSGGRTSYADSVKGRFTISRDNAKNTVYLQMNSLKPEDTAVYDCAVESWLDADDSYPDSILVDYWGQGTQVTVSS,low polyreactivity
4,QVQLVESGGVVVQAGGSLRLRCAASGITIPRYPMGWYRQAPGKERELVAAISPSGGGTYYADSVKGRFTISRDNAKNTVYLQMNSLKPEDTAVYYCAARYLGYLLSGYPPYDYWVQGTQVTVSS,high polyreactivity
5,QVQLVESGIGLVQAGGSLRLSCAASGSTCDFYAMGWYRPAPGKERELVAAITSDGRTNYADSVKGRFTISRDNAKNTVYLQMNSLKPEDTAVYYCAVTYGYEYDYWGQGTQVTVSS,low polyreactivity
6,QVQLVESGLGIVQAGGSLRLSCASSGSTFIFNTMVWYRQAPGKERELVAAIRLSGGSTYYADSVKGRFTISRDNAKNTVYLLINSLNPEDTAVYYCARRLATSGHTYDYWGQGTQVSVSS,low polyreactivity
7,QVQLVESGLGLVQAGGSLRLSCAASGFIFGSYAMGWYRQAPGKERELVAAISWSGGGTYYADSVKGRFTISRDNAKNTVYLQMNSLKPEDTAVYYCNARQFSGLGYWGQGTQVTVSS,high polyreactivity
8,QVQLVESGLGLVQAGGSLRLSCAASGSIFNIYAMGWYRQAPGKERELVAAITTGTRTYADSVKGLFTISRDNAKNTVYLLMNSLKPEDTAVDYCAAVSPTYPNTFYRYNYWGQGTQVTVSS,low polyreactivity
9,QVQLVESGLGLVQAGGSLRLSCAASGSIFQRYAMGWYRQAPGKEREFVAAISGRGGSTYYADSVKGRFTISRDNAKNTVYLQMNSLKPEDTAVYYCAADSSRFYGRPRFYYWGQGTQVTVSS,high polyreactivity
10,QVQLVESGLGLVQAGGSLRLSCAASGSTFYLYTMGWYRQAPGKERELVAAITYSGGRTYYADSVKGRFTISRDNAKNTVYLQMNSLKPEDTAVYYCAARRLPRPWTSTSDYWGQGTQVTVSS,high polyreactivity
11,QVQLVESGLGLVQAGGSLRLSCASSGSICSTYAMGLYRQAPGKERELVAAITTSGGRTYYADSVKGRFTISRDNAKNSVYLQMNSLKPEDTAVYFCNAVRGGRYGLDYWGQGTQVTVSS,high polyreactivity
12,QVQLVESGPGLVQAGGSLRLSCASSGFIFRNYPMGWYRHAPGKERELVASISRGTSTNYADSVKGRFTISRDNAKNTVYLQRNSLKPEDTAVYYCNKRFYYHPFDYWGQGTQVTVSS,high polyreactivity
13,QVQLVESGRGLDQAGGSLRLSCAASGSTFESYVMGWYRQAPGKERELVADITKSGGNTYYADSVKGRFTISRDNWMITVYLLMNSLKPEDTAVYYCAVERGRRGMDYWGQGTQVTVSS,low polyreactivity
14,QVQLVESGRGLVEAGGSLRLICAASGFIIRYYAMGWYRQAPWKERELVAAISTSGGRTYYADSVKGRFTISRDNAKNTVYLQMNSLKPEDTAVYYCNAYTHNRYYWGQGTQVTVSS,high polyreactivity
15,QVQLVESGRGLVPAGGSLRLSCAASGSIFTDYAMGWSRKAPGKERELVATITWSDASTYYTDSVKGRFTISRDNAKNTVYLQMNSLKPEDTAVYYFARRSRYSKGYDYWGQGTQVTVSS,low polyreactivity
16,QVQLVESGRGLVQAGCSLRLSCAASGSILHYNAMGWYRQAPGKERELVASITNSGRTYYADSVKGRFTISRDNAKNTDYLHMNSLKPEDTAVYYCAAQGTWRYFGHRHNYWGQGTQVTVSS,high polyreactivity
17,QVQLVESGRGLVQAGGSLLLICAASGSTFYTNAMGWYRQAPGKERELVASITGGGSTYYADSVKGRFTISRDNAKNTVYLQMNSLKPEDTAVYYWAAVNFGGGWEFDSWGQGTKVTVSS,low polyreactivity
18,QVQLVESGRGLVQAGGSLPLRCAASGPTFPFNAMGRYRQAPGKERELVAAISWRDGRTYYADSVKGRFTISRDNAKNTVYLHMNSLKPEDTAVYYCNVVKRRSDWGMDYWGQGTQVSVSS,high polyreactivity
19,QVQLVESGRGLVQAGGSLPLSCAASGRTFPSNTMGWYRPAPGKERELVAAINRSGGTTYYADSVKGRCTISRDKAKNTVYLQINSLKPEDTAVYYCAVLSRYKACRKYDYWGQCTQVTVSS,high polyreactivity
20,QVQLVESGRGLVQAGGSLPLSCSASGSIFAYYTMGWYRQAPGKERDLVAAISETGGSTYYADSVKGRFTISRDIAKNTVYLQMNSLKPEDTAVYYCNADKYYYYTGQEYYPQYGYWGQGTQVSVSS,low polyreactivity
21,QVQLVESGRGLVQAGGSLRISCAASGFTFVRYVMGWYRQAPGTESELVAAISRSGGSTHYADSVKGRFTISRDNAKNTVYFQMTSLKPEDTAVYYCAAACPRWPGQGDYWGQGTQVTVSS,high polyreactivity
